Results taken from US20190233906A1, “MUTANT STRAINS OF STAPHYLOCOCCUS AUREUS WITH MULTIPLE INACTIVATED TCS SYSTEMS” (priority 2015, published 2019).

How the values were obtained:
[1] = test system: ArlR D52A (non-phosphorylatable ArlR allele)
[2] = test system: ArlR response regulator of the arlRS two-component system of S. aureus MW2
arlR-dependent protein A = assay: Protein A expression by Western blotting on stimulation of GraS; assay type: cell-based, Staphylococcus aureus; conditions: 50 μg of colistin
Protocol: Overnight cultures of the strains were diluted in TSB-gluc to an OD650nm=0.1 and 50 μl of the diluted cultures were mixed with 1950 μl of chemically defined medium HHWm (Hussain-Hastings-White modified medium) (Toledo-Arana et al., 2005) to inoculate sterile 24-well polystyrene microtitre plates (Costar). Plates were incubated at 37° C. for 24 hours, trying to mimic biofilm forming conditions. […] of bacterial cultures were centrifuged and pellets were resuspended in 60 μl PBS. Then, 2 μl of Lysostaphin 1 mg/ml (Sigma) and 3 μl of DNase I 1 mg/ml (Sigma) were added. After 2 h of incubation at 37° C. cell lysates were centrifuged and supernatants were collected. Protein concentration was determined with the Bio-Rad protein assay (Bio-Rad). Samples were adjusted to 3-5 μg of total protein and one volume of Laemmli buffer was added. Total protein extracts were denatured by boiling at 100° C. for 5 min. Proteins were separated on 10% SDS-polyacrylamide gels and stained with 0.25% Coomassie brilliant blue R250 (Sigma) as loading controls. For Western blotting, proteins were transferred onto Hybond-ECL nitrocellulose membranes (Amersham Biosciences) by semi-dry electroblotting. […] Protein A was detected with the SuperSignal West Pico Chemiluminescent Substrate (Thermo Scientific). • Construction of the Bap-Snap-ClfA Quimeric Protein and Expression in S. aureus ΔXVI

GraS histidine kinase of the graXRS two-component system of S. aureus MW2
Protein A expression by Western blotting in ΔXV strain [1]: substitution of ArlR wild type by the non-phosphorylatable ArlRD52A allele suppresses the cross-talk
Protein A expression by Western blotting with 50 µg/ml colistin [1]: activation of protein A expression was absent when the ArlR phosphate accepting aspartate was mutated
Protein A expression by Western blotting in ΔXV strain complemented with arlR plus one HK [2]: In addition to ArlS itself, GraS is able to restore protein A expression in ΔXV strain

colistin
Expression of protein A (arlR-dependent protein A; arlRS graSR double mutant): but not in arlRS graSR double mutant
Expression of protein A (arlR-dependent protein A; wild type and single arlRS mutant): activation of the expression of protein A was observed
